# Test: soluble on expression in E. coli; label from the status in PepcDB or PDB records
row,Sequence,soluble on expression in E. coli
1,MRKYAAIALCTSAILAGCNTSNVSQEPKKEKKVQEVAIQKEALQEQGKISYTPITHESTNTSIHITDLKDSLNEVQYKIWRTADGKERAKSFSSKEKEKQFTIPFDIKEFEGKRGEFQIEATGMKEDGKTIPLTKSIITFEQKVPVLMYHAIDDYHGQGIKDLFVSPANFEAQMKHLKDNGYTLLTFERWGDINKVNKPIFVTFDDGMKNNMNAFRVLQKLKDDTFKPAATEYMIVDNVDVEGALSTSEIKEMVDSGIFSVQSHTATHADLPKITNYEEELKGSKEKLEKITGKPVIAIAYPFGHVDDKVVTETKKYYQFATTTKPGQFITKGEPDELLKMKRVRIHHTTTVEQFASSIK,not soluble
2,MRKYRLSEEQRAFSYQEDGTKKSVLLRQIIAISDFNDVIAGTAGGWIDRETVLAQEGNCWIYDQNAIAFGGTVISGNTRITGTSVLWGEVYATDNVWIDNSEISQGAYISDSVTIHDSLVYVQCRIFGHALIDQHSMIVAAQGLTPDHQLLLQIYDRARVSASRIVHQAQIYGDAVVRYAFIEHRAEVFDFASVEGNEENNVWLCDCAKVYGHAQVKAGIEEDAIPTIHYSSQVAEYAIVEGNCVLKHHVLIGGNAVVRGGPILLDEHVVIQGESRITGAVIIENHVELTDHAVVEAFDGDTVHVRGPKVINGEERITRTPLAGLLLEHHHHHH,not soluble
3,MRLDYALFSQHLVNSREKAKALVLKNQVLVNKMVVSKPSFIVKENDKIELIAEKLFVSRAGEKLGAFLETHFVDFKGKVVLDVGASKGGFSQVALLKGAKRVLCVDVGKMQLDESLKQDKRIECYEECDIRGFKTPETIDLALCDVSFISLYYILEAILPLSDEFLTLFKPQFEVGRGIKRNKKGVVVDKEAILNALENFKNHLKTKDFQILKIQESLVKGKNGNVEFFIHFKRA,not soluble
4,MRLEKFIHLLGERGFDGALISPGTNLYYLTGLRLHEVGERLAILAVSAEGDYRFLAPSLYENVVNNFPATFWHDGENPYAKLREILEELGISKGRILIEDTMRADWLIGIMKLGKFTFQPLSSLIKELRMIKDKEEVKMMEHASRIADKVFEEILTWDLIGMKERELALKIELLIRELSDGIAFEPIVASGENAANPHHEPGERKIRKGDIIILDYGARWKGYCSDITRTIGLGELDERLVKIYEVVKDAQESAFKAVREGIKAKDVDSRAREVISKAGYGEYFIHRTGHGLGLDVHEEPYIGPDGEVILKNGMTFTIEPGIYVPGLGGVRIEDDIVVDEGKGRRLTKAERELIIL,soluble
5,MRLFIVQAMFTEYRPTHGYDEYFCREQSAPRADLEPLLSSLGAMGLAELNRSHASASNLLRRLGATFRLNGSGLHGGERILPFDPLPRLIHRQEWSVLERGLVQRLEAIDQFLADVYGPQRILNDGVIPREDVESSQGWRPQMQDIAVPLNRWCHISGLDLIRDGDGTWRVLEDNLRCPSGVAYFLENRRVMKRLFPSLFQGRTVQPIDDYPSHLLRTLQDLAPWSDAPRVVLLTPGVFNSAYFEHSYLAQQMGIALVEGRDLICEDGRVWMRSTAGREPVDVIYRRIDDDFLDPNVFRRDSMLGVPGLIDAMRSGRVAIANAPGSGVADDKLIYAYVPAMIRYYLNEEPIIDNVPTYLCSRDDDRRYVLEHLNELVVKSVAEAGGYGMLIGPHASSEEIESFAVKIKAHPRNFIAQPTLQLSTVPSLSEGELYPCHVDLRPYVLRGKSDWVSPGGLTRVALKRGSLVVNSSQGGGCKDTWVVSDSAVTAGNQELVPC,not soluble
6,MRLRLALFSSLLAATFAITGCDQSSETPDNAATISIEHAQGTTLVPLNPQKVVILNPSVLDNADALHIKVAGVPQTSTHLPAFLSKYSGPEYMNTGTLFEPDYEALSQAKPDLIIAGGRAQDAYNKLSAIAPTIALDVDTQHFTQSLTQRTEQLASIFGKEEEAKTLLGNFSSQVNAIKQKSANAGSAMVLMISGGKMSAYTPGSRFGFIFDELGFTPAATFAESGRHGNVVTSEFILNANPDWLFVLDRDNAIGRTEGQSAQQVLDNPLIHKTKAWQNDRIVYLDSASLYIAGGVQSYTQLMNKVSAILDKPVSEQ,not soluble
7,MRLTEGIVVDSVLTFGKLRFSALRREVRKQNEDGTVSNEVKERTYNLKSSAQGRMIQVSIPANVPLREFAYDAEVELVNPIVDTVANYVFREGTTVNWFIKADDLVLKRQPNQGNSTNQIEGKK,not soluble
8,MRLVEIGRFGAPYALKGGLRFRGEPVVLHLERVYVEGHGWRAIEDLYRVGEELVVHLAGVTDRTLAEALVGLRVYAEVADLPPLEEGRYYYFALIGLPVYVEGRQVGEVVDILDAGAQDVLIIRGVGERLRDRAERLVPLQAPYVRVEEGGIHVDPIPGLFDLEHHHHHH,not soluble
9,MRMRLMLLGGGNALGQALIRLGAEEDIGFLAPRPPQDGWDVASLTQLLDDTRPDALINLAYYFDWFQAETVSAARLTHQERSVERLAELCQHHNITLVQPSSYRVFDGSRATAYSEKDEPVPLGLRGQALWRIEQSVRATCPQHVLVRFGWLLDDSADGVLGRFLSRAKEPGELLLADDRRGNPTPVDDAARVIISIVKQLDCEAPLWGTYHYAGHEATTPLALGQAVLTEARLLHPLAIESPTAQAHAARPDAAEEPQHAVLACKKILHTFGIKPRAWRAGLPSLLDRYYRHV,not soluble
10,MRMSKMARKDPTIEFCQLGLDTFETKYITMFGMLVSCSFDKPAFISFVFSDFTKNDIVQNYLYDRYLIDYENKLELNEGFKAIMYKNQFETFDSKLRKIFNNGLRDLQNGRDENLSQYGIVCKMNIKVKMYNGKLNAIVRECEPVPHSQISSIASPSQCEHLRLFYQRAFKRIGESAISRYFEEYRRFFPIHRNGSHLA,soluble
11,MRNERAAKLVVIGGGTGLPVLLRGLKQHELDLTAIVTVADDGGSSGRLRDELHIPPPGDVRNVLAALSDVEPLIVELFQHRFQNGNGLSGHSLGNLILAALTSITGDFVKAIREMSKVLNVRGQVLPAANKSVVLHAEMEDGSIVSGESKIPSAGKKIKRVFLTPEDIEPLPETVDAIRRADLIVIGPGSLYTSILPNLLVPKIGQEVCKAKAKKVYICNIMTQAGETPHYTVSDHVEALHAHLGGPFLDAVIINSGAIPEAIRRRYEAERAEPVRDDSSGLSLQVIRDDIVTYEDGVIRHNTAKVAALLLGLLPHR,not soluble
12,MRNETLVSIIVPVYNSAQYLRKCIDSILAQSYTEFELLLINDGSEDHSGLICDDYAQSDNRIQVFHQENAGVSAARNLGLEKHTGEHFLFIDSDDYIQERYLEELMKYASCDFVQCSCCSEPVGNDYLFVDGNFEGSDEIKQCLLKYIYPEFTVPFGRLYKSSIQRKNKLFFDTYLYSGEDTLWVSQYLLCVHSLRVSSYIGYIYVHHVGEHLSQKSISYEHLEYTLHKLLISYSDLEKRYDFDLTGVRYSVIIYFFHRYIVYIANRNYTEIRKELEKSCANPLIKGVFYDKKYLLKGKKMKLFNWLVLHDMYSVLALYVKRWKRYL,not soluble
13,MRNIMEQYTEKPEILMLTQQSLQSENFKEMLSKNTETKITIIDAKNPSYHELIPDRYFLLVDFSVDTPSDTLVYLKDSNKVLGTIMLNLGYDLDTEELASWPHVKGIFGPLDSMEKVCRGLGAIVKGDNWLSRRLLDQLVNYYKGKESNNVSEP,not soluble
14,MRNKADNKKRNFLTHSEIESLLKAANTGPHATRNYCLILLCFIHGFRASEICRLRISDIDLKAKCIYIHRLKKGFSTTHPLLNKEVQALKNWLSIRTSYPHAESEWVFLSRKGNPLSRQQFYHIISTSGGNAGLSLEIHPHMLRYSCGFALANMGIDTRLI,not soluble
15,MRNKDLEPHSFELWLNAAKTNLDKYEMALIITATLGLRRGEVMGLRNESIKISHDQINDADVAQISIDMQRNTNELNGGPLKTKSSYRTIWAFGKTVDHLKYAMITADNLRQRNNIQAEKHWLWLNNDGNPLHPTHLNRLMRRVSNRSGVEVYPHLLRHYFATQAIAANKPQIDVMHYLGHKNLQMTADYTRSTKAASLNVFNSIDKFLLEHHHHHH,not soluble
16,MRNQFDLELHELEQSFLGLGQLVLETASKALLALASKDKEMAELIINKDHAINQGQSAIELTCARLLALQQPQVSDLRFVISIMSSCSDLERMGDHMAGIAKAVLQLKENQLAPDEEQLHQMGKLSLSMLADLLVAFPLHQASKAISIAQKDEQIDQYYYALSKEIIGLMKDQETSIPNGTQYLYIIGHLERFADYIANICERLVYLETGELVDLN,soluble
17,MRNSTDYSPLYRSFIGFDHLASLIDKASQPGKQSSYPPYNIELLAENQYRITMAVAGFREEDIDIESKDNGLIIVGTKQPPANSTQESEATTRHFLHQGIAERNFERKFQLGEHVKVIGAFMENGLLHVDLEREIPEALKSRKIAINGKSLLNGNS,not soluble
18,MRPISNLNTSAATYIPPQQLPSSCLETLTLLVQMNNYIKRDADYSTGMAVAPLVPEEVHLLAAAMTTELHRHQFQPVVSANDLQLPEPFTFDVAGFTITFTKTQEHDNTGNLMKIAVSKSGVCTSTNITLELFHSIVTTLMSRSQYGTFDLWSVRPILTDESQNRVHEAARYSPAQQYGREETHFTNNGMREFGNMSPLAWRNDVELQQSCNTSNIPPNAANDDINNTRQTIEDQPEADEPQQYVKLTVDDMRKWAAMDQQARNALQGVSGWCTRNHFNIKNARNYLTDHGLNYAGQVKVNRPHEYAKFTLEHIRQWAALNKHVRKPVGYLEKWCKERNLAPTTARNYLKNDGLTALGELKLTGPQKWVTFTFGDIVQWANMTQEERNSAGGAEKWSKKRGFQWSTARSYLKSSGVTKQGARKLAWLKNSGNMSNPFYLAQPTSRRT,not soluble
19,MRQGFPYARPGQVIGLFGGSFDPPHAGHVHVTREALKMFGLDRVWWLVTPGNPLKAHGPAPLDRRMEAARAMMRHPRVDVTDIEAHLGTRVTADTIAALRRIYPRVRFVWLMGADNLAQLHRWKDWRQIIETVPVGVLARPGDRISARMSPAARAYAPYRIDGQARHLLGRAEAPAWCFVNVPMVDVSSTRIRAAGGWSAAQQGRGQTGTQDQ,not soluble
20,MRQSTLHTRLSTGPGGSMRSSIEIFNIRTRKMRVVWQTPELFEAPNWSPDGKYLLLNSEGLLYRLSLAGDPSPEKVDTGFATICNNDHGISPDGALYAISDKVEFGKSAIYLLPSTGGTPRLMTKNLPSYWHGWSPDGKSFTYCGIRDQVFDIYSMDIDSGVETRLTHGEGRNDGPDYSPDGRWIYFNSSRTGQMQIWRVRVDGSSVERITDSAYGDWFPHPSPSGDKVVFVSYDADVFDHPRDLDVRVQLMDMDGGNVETLFDLFGGQGTMNSPNWSPDGDEFAYVRYFPVE,soluble

# Source: the DeepSol protein solubility set
